Laboratory results taken from paper PMC9918506, “Structural insights into pathogenic mechanism of hypohidrotic ectodermal dysplasia caused by ectodysplasin A variants” (Nature Communications, 2023).

B1: EDA·A1 TNF homology domain (EDA·A1THD, residues 233–391), wild type [human] / EDAR cysteine-rich domains (EDAR_(CRDS), residues 30–150), MBP tag removed [human] (parent)
chain 1: GPSGAADKAGTRENQPAVVHLQGQGSAIQVKNDLSGGVLNDWSRITMNPKVFKLHPRSGELEVLVDGTYFIYSQVEVYYINFTDFASYEVVVDEKPFLQCTRSIETGKTNYNTCYTAGVCLLKARQKIAVKMVHADISINMSKHTTFFGAIRLGEAPAS
chain 2: GGSGGSGGSGGSNCGENEYYNQTTGLCQECPPCGPGEEPYLSCGYGTKDEDYGCVPCPAEKFSKGGYQICRRHKDCEGFFRATVLTPGDMENDAECGPCLPGYYMLENRPRNIYGMVCYSCLLAPPNTKECVG

Variants of: B1
Test: SPR
Settings: with EDAR cysteine-rich domains (EDAR_(CRDS), residues 30–150), 50, 25, 12.5, 6.25, 3.125 nM

| Variant | Kd [nM] |
| --- | --- |
| chain 1 GPSGAADKAGTRENQPAVVHLQGQGSAIQVKNDLSGGVLNDWSCITMNPKVFKLHPRSGELEVLVDGTYFIYSQVEVYYINFTDFASYEVVVDEKPFLQCTRSIETGKTNYNTCYTAGVCLLKARQKIAVKMVHADISINMSKHTTFFGAIRLGEAPAS [chain 1 R44C] | 35.9 |
